Experimental data reported in patent US7115711 (GENERAL HOSPITAL, dated 2006).

T1: B42-RIP110 (mouse, UniProt Q5U5Q9 20-727)
T1 construct: Clone from a mouse liver cDNA library fused to B42; also called B42-110; B42 fusion 110
T1 sequence: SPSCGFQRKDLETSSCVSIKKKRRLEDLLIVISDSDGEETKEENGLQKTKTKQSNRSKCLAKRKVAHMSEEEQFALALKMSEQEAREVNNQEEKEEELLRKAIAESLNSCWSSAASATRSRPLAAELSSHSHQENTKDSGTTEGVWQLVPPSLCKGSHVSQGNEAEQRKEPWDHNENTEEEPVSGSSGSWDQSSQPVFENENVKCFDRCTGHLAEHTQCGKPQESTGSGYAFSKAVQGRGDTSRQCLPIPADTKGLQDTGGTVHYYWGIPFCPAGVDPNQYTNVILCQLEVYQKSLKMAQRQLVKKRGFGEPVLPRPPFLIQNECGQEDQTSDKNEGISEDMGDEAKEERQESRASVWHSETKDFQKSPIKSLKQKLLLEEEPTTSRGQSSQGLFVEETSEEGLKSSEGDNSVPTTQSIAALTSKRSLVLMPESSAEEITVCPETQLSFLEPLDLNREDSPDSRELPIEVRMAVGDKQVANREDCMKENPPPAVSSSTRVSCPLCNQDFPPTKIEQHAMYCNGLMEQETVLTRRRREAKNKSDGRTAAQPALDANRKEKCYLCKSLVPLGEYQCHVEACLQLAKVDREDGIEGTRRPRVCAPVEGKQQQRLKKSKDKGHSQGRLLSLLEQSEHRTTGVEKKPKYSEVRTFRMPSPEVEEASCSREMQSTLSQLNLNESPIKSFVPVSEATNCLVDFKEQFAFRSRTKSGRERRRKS

T2: LexA-TR (bacterial; rat, UniProt P0A7C2 1-202; P18113 170-461, limits assumed)
T2 construct: also called Lex fusion TR
T2 sequence (looked up): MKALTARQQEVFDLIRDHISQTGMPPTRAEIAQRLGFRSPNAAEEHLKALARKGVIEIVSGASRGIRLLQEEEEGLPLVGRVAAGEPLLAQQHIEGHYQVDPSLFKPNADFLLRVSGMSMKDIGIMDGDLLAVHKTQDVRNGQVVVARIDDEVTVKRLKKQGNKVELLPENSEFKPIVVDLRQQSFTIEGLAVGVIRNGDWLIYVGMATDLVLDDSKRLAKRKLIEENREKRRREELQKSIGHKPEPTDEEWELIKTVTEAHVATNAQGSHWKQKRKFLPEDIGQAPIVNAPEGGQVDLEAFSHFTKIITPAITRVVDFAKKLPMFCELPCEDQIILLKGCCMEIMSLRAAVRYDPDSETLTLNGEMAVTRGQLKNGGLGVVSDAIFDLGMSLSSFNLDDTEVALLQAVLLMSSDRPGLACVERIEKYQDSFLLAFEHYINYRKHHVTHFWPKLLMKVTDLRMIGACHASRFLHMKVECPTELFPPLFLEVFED

B1: B42-RIP13 (other, not shown: large carriers)
chain: DALAALVDAAASAPQMDVSKTKESKHEAARLEENLRSRSAAVSEQQQLEQKNLEVEKRSVQCVCTSSALPSGKAQPHASVVYSEAGKDKGPPPKSRYEEELRTRGKTTITAANFIDVTITRQIASDKDARERGSQSSDSSSSLSSHRYETASDAIEVISPASSPAPPQEKPQAYQPDMVKANQAENESTRQYEGPLHHYRSQQESPSPQQQPPLPPSSQSEGMGQVPRTHRLITLADHICQIITQDFARNQVPSQPSTSTFQTSPSALSSTPVRTKTSSRYSPESQSQTVLHPRPGPRVSPENLVDKSRGSRPGKSPERSHIPSEPYEPISPPQGPAVHEKQDSMLLLSQRGVDPAEQRSDSRSPGSISYLPSFFTKLESTSPMVKSKKQEIFRKLNSSGGGDSDMAAAQPGTEIFNLPAVTTSGAVSSRSHSFADPASNLGLEDIIRKALMGSFDDKVEDHGVVMSHPVGIMPGSASTSVVTSSEARRDEGEPSPHAGVCKPKLINKSNSRKSKSPIPGQSYLGTERPSSVSSVHSEGDYHRQTPGWAWEDRPSSTGSTQFPYNPLTIRMLSSTPPTQIACAPSAITQAAPHQQNRIWEREPAPLLSAQYETLSDSDD
B2: LexA-RXR (other, bacterial;human, UniProt P0A7C2 1-202, looked up)
chain: MKALTARQQEVFDLIRDHISQTGMPPTRAEIAQRLGFRSPNAAEEHLKALARKGVIEIVSGASRGIRLLQEEEEGLPLVGRVAAGEPLLAQQHIEGHYQVDPSLFKPNADFLLRVSGMSMKDIGIMDGDLLAVHKTQDVRNGQVVVARIDDEVTVKRLKKQGNKVELLPENSEFKPIVVDLRQQSFTIEGLAVGVIRNGDWLLAMGMKREAVQEERQRGKDRNENEVESTSSANEDMPVERILEAELAVEPKTETYVEANMGLNPSSPNDPVTNICQAADKQLFTLVEWAKRIPHFSELPLDDQVILLRAGWNELLIASFSHRSIAVKDGILLATGLHVHRNSAHSAGVGAIFDRVLTELVSKMRDMQMDKTELGCLRAIVLFNPDSKGLSNPAEVEALREKVYASLEAYCKHKYPEQPGRFAKLLLRLPALRSIGLKCLEHLFFFKLIGDTPIDTFLMEMLEAPHQMT
notes: also called Lex fusion RXR
B3: B42-PPAR clone starting at amino acid 91 (other, mouse, UniProt P23204 91-468, looked up, not shown: large carriers)
chain: DESPGSALNIECRICGDKASGYHYGVHACEGCKGFFRRTIRLKLVYDKCDRSCKIQKKNRNKCQYCRFHKCLSVGMSHNAIRFGRMPRSEKAKLKAEILTCEHDLKDSETADLKSLGKRIHEAYLKNFNMNKVKARVILAGKTSNNPPFVIHDMETLCMAEKTLVAKMVANGVEDKEAEVRFFHCCQCMSVETVTELTEFAKAIPGFANLDLNDQVTLLKYGVYEAIFTMLSSLMNKDGMLIAYGNGFITREFLKNLRKPFCDIMEPKFDFAMKFNALELDDSDISLFVAAIICCGDRPGLLNIGYIEKLQEGIVHVLKLHLQSNHPDDTFLFPKLLQKMVDLRQLVTEHAQLVQVIKKTESDAALHPLLQEIYRDMY
notes: range 91-C-terminus; Only the start is stated; also called PPAR (four clones)
B4: B42-PPAR (plasmid isolated from the screening, as used in Table 1) (other, mouse, UniProt P23204 91-468, looked up, not shown: large carriers)
chain: B3 chain
notes: 'For B42-PPAR, the plasmid isolated from the screening was used'; also called B42 fusion PPAR
B5: B42-PPAR clone starting at amino acid 84 (other, mouse, UniProt P23204 84-468, looked up, not shown: large carriers)
chain: PVIPASTDESPGSALNIECRICGDKASGYHYGVHACEGCKGFFRRTIRLKLVYDKCDRSCKIQKKNRNKCQYCRFHKCLSVGMSHNAIRFGRMPRSEKAKLKAEILTCEHDLKDSETADLKSLGKRIHEAYLKNFNMNKVKARVILAGKTSNNPPFVIHDMETLCMAEKTLVAKMVANGVEDKEAEVRFFHCCQCMSVETVTELTEFAKAIPGFANLDLNDQVTLLKYGVYEAIFTMLSSLMNKDGMLIAYGNGFITREFLKNLRKPFCDIMEPKFDFAMKFNALELDDSDISLFVAAIICCGDRPGLLNIGYIEKLQEGIVHVLKLHLQSNHPDDTFLFPKLLQKMVDLRQLVTEHAQLVQVIKKTESDAALHPLLQEIYRDMY
notes: range 84-C-terminus; Only the start is stated; also called PPAR (three clones)

Tests used:
LexA-RXR [1] = target: B2; test: cell-based or functional assay
B42-RIP13 = target: B1; test: yeast interaction trap, X-gal plate, with 9-cis-RA; B = blue (strong interaction)
Method: (§1) Interactions of the RIP clones with other superfamily members, including RAR, TR, the glucocorticoid receptor (GR), and MB67, an orphan isolated in this lab (Baes et al., Mol. Cell. Biol. 14:1544–1552, 1994) were also tested using a series of appropriate LexA fusions. In particular, the experiments shown in Table 1 were carried out as follows. Yeast transformants containing a lacZ reporter gene under the control of LexA binding sites and the indicated B42- and Lex-fusion protein expression vectors were transferred onto galactose-Ura⁻His⁻Trp⁻ plates containing X-gal and incubated for two days. Relative levels of β-galactosidase activity were estimated and are depicted as follows: B, blue (strong interaction); LB, light blue (weak interaction); W, white (no interaction); nt, not tested. At least three separate colonies were tested on the same plate for interaction. To test the effects of ligands, 100 µl of a 10^-6M solution of the appropriate ligand was spread onto plates just before inoculation of cells (9-cis-RA for RXR, T3 for TR, and all-trans-RA for RAR). For B42-PPAR, the plasmid isolated from the screening was used. Both full length and truncated RAR fusions to LexA were tested with identical results for all the B42 fusions except B42-110, which was tested only with the full length fusion.

B42-RIP110 = target: T1, B42-RIP110; test: as above
Method: as §1

LexA-RXR [2] = target: B2; test: yeast interaction trap screen; clones showing specific interaction with LexA-RXR; four clones starting at amino acid 91
Method: (§2) From 3×10^6 primary yeast transformants, a number of β-gal expressing colonies were identified in two independent screens carried out in the presence or absence of 9-cis-RA. Since expression of the B42-cDNA fusion proteins was induced by growth on galactose, candidates obtained from each condition were tested for galactose-dependent expression of both β-gal and LEU2, in the presence or absence of 9-cis-RA, using appropriate indicator plates (see below).
(§3) Candidates showing specific interaction with LexA-RXR were sequenced across the B42 fusion junction using an appropriate vector primer, and additional sequence was determined. The deduced amino acid sequences were compared to those in the GenBank and EMBL databases using the GCG (Devereux et al., Nucleic Acids Res. 12:387–395, 1984) and BLAST programs (Altschul et al., J. Mol. Biol. 215:403–410, 1990). […] All of these clones included intact ligand binding domains, as expected from the fact that the major heterodimerization function lies within that domain. For PPAR (Issemann et al., Nature 347:645–650, 1990), three clones started at amino acid 84, just N-terminal to the DNA binding (C) domain, four others started at 91, within the C domain, and one at 170, just past the C domain. For RAR (Leroy et al., EMBO J. 10:59–69), all six clones started at amino acid 132, within the C domain.

LexA-TR = target: T2, LexA-TR; test: yeast interaction trap, X-gal plate, with T3; W = white (no interaction)
Method: as §1

LexA-RXR [3] = target: B2; test: yeast interaction trap screen; clones showing specific interaction with LexA-RXR; three clones starting at amino acid 84
Method: as §2, §3

## B1
LexA-RXR [1]
  β-gal expression (lacZ reporter under LexA binding sites, yeast liquid culture): ~3 fold

## B2
B42-RIP13
  binding result: binds
B42-RIP110
  binding result: binds

## B3
LexA-RXR [2]
  binding result: binds

## B4
LexA-TR
  binding result: no binding

## B5
LexA-RXR [3]
  binding result: binds
